Measured values taken from article PMC12480940.

Experiments:
Experiment in all cases: SPR; Biacore T200, 25 °C, pH 5.5 (177 mM phosphate, 85 mM NaCl, 0.005% TWEEN-20); FIX-HSA variants amine-coupled (200 RU) on CM5; soluble His-tagged hFcRn (15.6-2000.0 nM for HSAWT, 1.95-62.5 nM for HSAQMP) or mFcRn (7.8-8000.0 nM for HSAWT, 3.9-500 nM for HSAQMP) injected; 1:1 Langmuir model
Padua-HSAQMP (human) = molecular target: Padua-HSAQMP (human)
PaduaKA-HSAQMP (human) = PaduaKA-HSAQMP (human) (UniProt P02768)
PaduaKR-HSAQMP (human) = PaduaKR-HSAQMP (human) (UniProt P02768)
FIXKA-HSAWT (human) = FIXKA-HSAWT (human) (UniProt P02768)
FIXKR-HSAWT (human) = FIXKR-HSAWT (human) (UniProt P02768)

| Substance | Kd (Padua-HSAQMP (human)) | koff (Padua-HSAQMP (human)) | Kd (PaduaKA-HSAQMP (human)) | koff (PaduaKA-HSAQMP (human)) | Kd (PaduaKR-HSAQMP (human)) | koff (PaduaKR-HSAQMP (human)) | Kd (FIXKA-HSAWT (human)) | koff (FIXKA-HSAWT (human)) | Kd (FIXKR-HSAWT (human)) | koff (FIXKR-HSAWT (human)) |
| --- | --- | --- | --- | --- | --- | --- | --- | --- | --- | --- |
| soluble truncated His-tagged mouse neonatal Fc receptor (from UniProt Q61559 22-297; P01887 21-119) | 44.6 nM | 0.00512 s⁻¹ | 51.7 nM | 0.0028 s⁻¹ | 54.9 nM | 0.00429 s⁻¹ | – | – | – | – |
| soluble truncated His-tagged human neonatal Fc receptor (from UniProt P55899 24-297; P61769 21-119) | – | – | 0.2 nM | 6e-05 s⁻¹ | 0.3 nM | 7e-05 s⁻¹ | 177 nM | 0.00769 s⁻¹ | 190 nM | 0.00827 s⁻¹ |
